In US20090098123A1 (ROCKEFELLER UNIVERSITY, published 2009):

How the values were obtained:
[1] = target: human CD81 (human) (UniProt P60033); test: cell-based or functional assay
[2] = target: GFP-CLDN1 with a single FLAG epitope inserted in EL1 at position F9 (human) (UniProt O95832); test: cell-based or functional assay
[3] = target: GFP-CLDN1 with a single FLAG epitope inserted in EL1 at position F8 (human) (UniProt O95832); test: cell-based or functional assay
[4] = target: GFP-CLDN1 with a single FLAG epitope inserted in EL1 at position F6 (human) (UniProt O95832); test: cell-based or functional assay
[5] = target: CLDN1 F10x3 (GFP-CLDN1 with a triple FLAG epitope inserted in EL1 at position F10) (human) (UniProt O95832); test: cell-based or functional assay
[6] = target: T1, J6/JFH HCVcc (cell culture infectious HCV particles of the chimeric genotype 2a J6/JFH genome) (Hepatitis C virus genotype 2a, isolate …, UniProt P26660 192-383; P26660 384-750); test: HCVcc bound to transduced CHO cells 2 h at 37 C; cell-associated HCV RNA by real-time RT-PCR
T1 construct: A whole enveloped virion, not a single protein

JS81 anti-CD81 antibody (BD Pharmingen) was tested, and the time after the temperature shift at which antibody addition still gives half-maximal inhibition of HCVpp infection (synchronized infection) [1] was 18 min.

“anti-FLAG M2 monoclonal antibody (Sigma)” showed a reduction of HCVpp permissiveness (luciferase) of 293T cells expressing the clone, in the presence of antibody [2] of under 62%, a reduction of HCVpp permissiveness (luciferase) of 293T cells expressing the clone, in the presence of antibody [3] of under 45% and a reduction of HCVpp permissiveness (luciferase) of 293T cells expressing the clone, in the presence of antibody [4] of under 90%. For the same molecule, the time after the temperature shift at which antibody addition still gives half-maximal inhibition of HCVpp infection (synchronized infection) [5] was 73 min.

B1: human CLDN1 (Claudin-1), wild type (receptor)
chain: MANAGLQLLGFILAFLGWIGAIVSTALPQWRIYSYAGDNIVTAQAMYEGLWMSCVSQSTGQIQCKVFDSLLNLSSTLQATRALMVVGILLGVIAIFVATVGMKCMKCLEDDEVQKMRMAVIGGAIFLLAGLAILVATAWYGNRIVQEFYDPMTPVNARYEFGQALFTGWAAASLCLLGGALLCCSCPRKTTSYPTPRPYPKPAPSSGKDYV
notes: also called wild-type CLDN1
B1: no binding (tested: MOI ~0.5) [6].

B2: human CD81 (receptor)
chain: MGVEGCTKCIKYLLFVFNFVFWLAGGVILGVALWLRHDPQTTNLLYLELGDKPAPNTFYVGIYILIAVGAVMMFVGFLGCYGAIQESQCLLGTFFTCLVILFACEVAAGIWGFVNKDQIAKDVKQFYDQALQQAVVDDDANNAKAVVKTFHETLDCCGSSTLTALTTSVLKNNLCPSGSNIISNLFKEDCHQKIDDLFSGKLYLIGIAAIVVAVIMIFEMILSMVLCCGIRNSSVY
notes: whole, on cells
B2: no binding (tested: MOI ~0.5) [6].
